From patent publication US20090093061A1

Columns and labels:
Experiment in all cases: GroEL-490 bead column capture of denatured serum, ATP elution, LC-MS-MS
[1] = biological target: brefeldin A-inhibited guanine nucleotide-exchange protein 1 (Homo sapiens) (UniProt Q9Y6D6)
[2] = biological target: complement component 4 binding protein, alpha (Homo sapiens) (UniProt P04003)
[3] = biological target: KIAA1330 protein (Homo sapiens) (UniProt Q96L96)
[4] = biological target: dynein, cytoplasmic, heavy polypeptide 2 (Homo sapiens) (UniProt Q8NCM8)
[5] = biological target: insulin-like 6 precursor (Homo sapiens) (UniProt Q9Y581)
[6] = biological target: microfilament and actin filament cross-linker protein isoform a (UniProt Q9UPN3)
[7] = biological target: PDZ domain-containing guanine nucleotide exchange factor I (Homo sapiens) (UniProt Q8TEU7)
KIAA0317 (Homo sapiens) = KIAA0317 (Homo sapiens) (UniProt O15033)
[8] = biological target: POU domain, class 2, transcription factor 1 (Homo sapiens) (UniProt P14859)
Chain of POU domain, class 2, transcription factor 1 (Homo sapiens) (P14859 whole entry, the tested form may be a part, canonical isoform): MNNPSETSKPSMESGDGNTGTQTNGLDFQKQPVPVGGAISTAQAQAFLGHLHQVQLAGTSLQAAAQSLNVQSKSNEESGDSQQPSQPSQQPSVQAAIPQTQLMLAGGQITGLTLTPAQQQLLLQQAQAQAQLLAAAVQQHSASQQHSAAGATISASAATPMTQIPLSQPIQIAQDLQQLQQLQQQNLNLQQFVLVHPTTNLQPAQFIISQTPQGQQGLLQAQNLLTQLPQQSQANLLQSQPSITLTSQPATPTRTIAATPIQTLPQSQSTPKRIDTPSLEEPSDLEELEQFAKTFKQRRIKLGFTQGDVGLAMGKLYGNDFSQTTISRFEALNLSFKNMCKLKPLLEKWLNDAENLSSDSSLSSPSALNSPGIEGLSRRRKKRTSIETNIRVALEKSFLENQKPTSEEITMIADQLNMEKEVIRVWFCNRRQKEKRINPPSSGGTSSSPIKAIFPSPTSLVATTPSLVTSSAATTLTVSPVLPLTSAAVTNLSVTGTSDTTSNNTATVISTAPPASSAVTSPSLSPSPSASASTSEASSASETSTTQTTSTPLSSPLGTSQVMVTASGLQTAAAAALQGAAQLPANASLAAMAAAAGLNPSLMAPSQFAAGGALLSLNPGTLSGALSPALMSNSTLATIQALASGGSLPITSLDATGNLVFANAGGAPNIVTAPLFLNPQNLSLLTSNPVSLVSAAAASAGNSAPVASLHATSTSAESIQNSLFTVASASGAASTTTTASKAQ

[9] = biological target: synovial sarcoma, X breakpoint 2 isoform a (Homo sapiens) (UniProt Q16385)
[10] = biological target: odd Oz/Ten-m homolog 3 (Homo sapiens) (UniProt Q9P273)
[11] = biological target: phosphoinositol 3-phosphate-binding protein-2 (Homo sapiens) (UniProt Q9HAU0)
Chain of phosphoinositol 3-phosphate-binding protein-2 (Homo sapiens) (Q9HAU0 2-1116 limits assumed): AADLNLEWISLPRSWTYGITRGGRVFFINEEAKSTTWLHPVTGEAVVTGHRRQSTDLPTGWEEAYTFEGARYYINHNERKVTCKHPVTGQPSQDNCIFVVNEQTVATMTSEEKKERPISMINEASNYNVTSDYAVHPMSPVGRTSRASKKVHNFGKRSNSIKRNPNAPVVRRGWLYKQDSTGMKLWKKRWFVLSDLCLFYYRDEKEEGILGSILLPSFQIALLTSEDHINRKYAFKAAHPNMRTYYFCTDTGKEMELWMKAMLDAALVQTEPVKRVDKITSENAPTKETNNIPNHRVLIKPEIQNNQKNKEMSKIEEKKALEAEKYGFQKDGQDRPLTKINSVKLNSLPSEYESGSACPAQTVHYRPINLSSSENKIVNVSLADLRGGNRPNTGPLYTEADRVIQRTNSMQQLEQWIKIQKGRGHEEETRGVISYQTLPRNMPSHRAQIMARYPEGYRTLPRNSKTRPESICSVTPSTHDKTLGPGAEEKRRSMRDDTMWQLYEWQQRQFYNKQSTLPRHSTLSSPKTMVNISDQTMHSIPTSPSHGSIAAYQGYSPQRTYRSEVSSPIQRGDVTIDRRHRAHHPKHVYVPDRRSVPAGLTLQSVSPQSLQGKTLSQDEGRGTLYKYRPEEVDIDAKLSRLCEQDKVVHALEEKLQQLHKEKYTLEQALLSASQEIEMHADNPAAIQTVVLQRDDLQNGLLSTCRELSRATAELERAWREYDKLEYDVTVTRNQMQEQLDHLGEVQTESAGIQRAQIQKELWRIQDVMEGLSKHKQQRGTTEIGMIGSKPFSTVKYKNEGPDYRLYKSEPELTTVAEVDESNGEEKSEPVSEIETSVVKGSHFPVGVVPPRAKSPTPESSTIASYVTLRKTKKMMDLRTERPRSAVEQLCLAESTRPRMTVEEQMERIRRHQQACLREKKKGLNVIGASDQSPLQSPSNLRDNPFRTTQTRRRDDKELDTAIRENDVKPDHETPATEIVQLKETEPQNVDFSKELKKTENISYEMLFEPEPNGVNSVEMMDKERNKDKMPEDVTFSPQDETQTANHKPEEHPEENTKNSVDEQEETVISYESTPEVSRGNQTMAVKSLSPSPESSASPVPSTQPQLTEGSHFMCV

[12] = biological target: hypothetical protein FLJ22344 (Homo sapiens)
[13] = biological target: hypothetical protein XP_378639 (Homo sapiens)
[14] = biological target: apolipoprotein A-I precursor (Homo sapiens) (UniProt P02647)
[15] = biological target: zinc finger protein 28 (Homo sapiens) (UniProt Q8NHY6)
Chain of zinc finger protein 28 (Homo sapiens) (Q8NHY6 whole entry): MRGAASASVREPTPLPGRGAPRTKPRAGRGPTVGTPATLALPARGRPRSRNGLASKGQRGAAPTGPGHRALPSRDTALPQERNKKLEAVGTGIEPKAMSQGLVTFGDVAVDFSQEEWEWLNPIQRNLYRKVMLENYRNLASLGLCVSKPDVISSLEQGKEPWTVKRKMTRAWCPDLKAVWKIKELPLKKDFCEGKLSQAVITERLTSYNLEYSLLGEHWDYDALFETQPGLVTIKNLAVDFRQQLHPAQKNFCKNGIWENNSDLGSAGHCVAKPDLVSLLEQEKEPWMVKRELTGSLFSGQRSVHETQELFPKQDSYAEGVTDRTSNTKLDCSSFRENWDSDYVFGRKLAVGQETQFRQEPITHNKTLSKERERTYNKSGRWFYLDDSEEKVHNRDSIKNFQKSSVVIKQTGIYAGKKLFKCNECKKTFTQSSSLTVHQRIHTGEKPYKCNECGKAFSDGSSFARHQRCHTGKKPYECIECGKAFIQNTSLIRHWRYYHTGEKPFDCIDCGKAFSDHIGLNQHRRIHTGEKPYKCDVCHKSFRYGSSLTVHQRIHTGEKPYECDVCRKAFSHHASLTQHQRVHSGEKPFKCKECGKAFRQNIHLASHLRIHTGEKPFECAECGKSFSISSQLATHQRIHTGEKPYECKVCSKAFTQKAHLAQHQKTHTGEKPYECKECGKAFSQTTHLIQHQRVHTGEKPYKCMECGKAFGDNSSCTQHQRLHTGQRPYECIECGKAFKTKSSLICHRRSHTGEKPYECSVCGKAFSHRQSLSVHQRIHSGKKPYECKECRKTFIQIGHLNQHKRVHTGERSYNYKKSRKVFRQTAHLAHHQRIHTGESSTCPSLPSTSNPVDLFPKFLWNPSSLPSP

dendrin (Homo sapiens) = dendrin (Homo sapiens) (UniProt O94850)
Chain of dendrin (Homo sapiens) (O94850 whole entry): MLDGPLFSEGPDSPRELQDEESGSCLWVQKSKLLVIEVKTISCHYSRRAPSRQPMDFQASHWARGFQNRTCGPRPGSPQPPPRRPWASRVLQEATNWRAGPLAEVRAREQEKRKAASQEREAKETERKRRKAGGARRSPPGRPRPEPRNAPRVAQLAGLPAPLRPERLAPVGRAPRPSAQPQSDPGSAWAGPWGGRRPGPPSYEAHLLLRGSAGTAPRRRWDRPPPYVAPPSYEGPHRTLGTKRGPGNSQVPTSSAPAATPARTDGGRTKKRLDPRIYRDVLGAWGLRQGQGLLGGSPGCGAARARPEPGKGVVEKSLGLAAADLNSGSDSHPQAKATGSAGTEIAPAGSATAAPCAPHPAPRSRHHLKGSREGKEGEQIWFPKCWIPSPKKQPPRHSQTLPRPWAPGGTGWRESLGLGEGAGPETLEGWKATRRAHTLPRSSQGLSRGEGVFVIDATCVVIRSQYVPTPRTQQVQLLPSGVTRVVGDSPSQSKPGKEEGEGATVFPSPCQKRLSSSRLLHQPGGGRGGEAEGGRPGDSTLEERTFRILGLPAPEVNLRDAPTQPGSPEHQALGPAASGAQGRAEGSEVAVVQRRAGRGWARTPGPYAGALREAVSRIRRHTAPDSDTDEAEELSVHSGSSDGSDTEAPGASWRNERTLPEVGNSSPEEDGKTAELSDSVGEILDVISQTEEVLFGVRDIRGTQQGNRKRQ

[16] = biological target: very large G-protein coupled receptor 1 (Homo sapiens) (UniProt Q8WXG9)
[17] = biological target: complement component 3 precursor (Homo sapiens) (UniProt P01024)
[18] = biological target: alpha 1 type IX collagen isoform 1 precursor (Homo sapiens) (UniProt P20849)
[19] = biological target: transferrin (Homo sapiens) (UniProt P02787)
Chain of transferrin (Homo sapiens) (P02787 20-698 limits assumed): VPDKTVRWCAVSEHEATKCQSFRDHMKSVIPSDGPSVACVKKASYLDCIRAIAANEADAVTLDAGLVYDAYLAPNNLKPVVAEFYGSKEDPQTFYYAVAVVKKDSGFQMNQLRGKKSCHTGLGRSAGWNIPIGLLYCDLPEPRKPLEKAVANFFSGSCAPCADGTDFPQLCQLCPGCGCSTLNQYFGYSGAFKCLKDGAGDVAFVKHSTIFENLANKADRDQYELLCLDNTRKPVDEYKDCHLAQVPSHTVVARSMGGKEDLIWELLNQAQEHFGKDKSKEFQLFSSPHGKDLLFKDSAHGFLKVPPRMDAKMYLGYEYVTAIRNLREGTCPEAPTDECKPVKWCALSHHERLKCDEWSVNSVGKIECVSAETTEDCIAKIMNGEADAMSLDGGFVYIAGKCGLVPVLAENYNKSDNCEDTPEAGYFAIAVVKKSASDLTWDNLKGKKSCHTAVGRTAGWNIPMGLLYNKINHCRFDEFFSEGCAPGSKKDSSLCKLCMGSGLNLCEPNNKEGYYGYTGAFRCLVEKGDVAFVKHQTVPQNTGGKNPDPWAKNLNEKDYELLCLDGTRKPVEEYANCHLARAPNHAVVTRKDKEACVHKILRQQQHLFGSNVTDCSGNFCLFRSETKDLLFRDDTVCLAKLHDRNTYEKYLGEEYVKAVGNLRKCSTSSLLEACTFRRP

[20] = biological target: apolipoprotein B precursor (Homo sapiens) (UniProt P04114)
[21] = biological target: similar to BC331191_1 (Homo sapiens)
[22] = biological target: similar to Ig alpha-2 chain C region (Homo sapiens) (UniProt P25787)
[23] = biological target: phosphoinositide-specific phospholipase C beta 1 isoform a (UniProt Q9NQ66)
[24] = biological target: ectonucleoside triphosphate diphosphohydrolase 7 (Homo sapiens) (UniProt Q9NQZ7)
[25] = biological target: serine (or cysteine) proteinase inhibitor, clade A (alpha-1 antiproteinase, antitrypsin), member 1 (UniProt P01009)
[26] = biological target: peroxisome biogenesis factor 13 (Homo sapiens) (UniProt Q92968)
Chain of peroxisome biogenesis factor 13 (Homo sapiens) (Q92968 whole entry): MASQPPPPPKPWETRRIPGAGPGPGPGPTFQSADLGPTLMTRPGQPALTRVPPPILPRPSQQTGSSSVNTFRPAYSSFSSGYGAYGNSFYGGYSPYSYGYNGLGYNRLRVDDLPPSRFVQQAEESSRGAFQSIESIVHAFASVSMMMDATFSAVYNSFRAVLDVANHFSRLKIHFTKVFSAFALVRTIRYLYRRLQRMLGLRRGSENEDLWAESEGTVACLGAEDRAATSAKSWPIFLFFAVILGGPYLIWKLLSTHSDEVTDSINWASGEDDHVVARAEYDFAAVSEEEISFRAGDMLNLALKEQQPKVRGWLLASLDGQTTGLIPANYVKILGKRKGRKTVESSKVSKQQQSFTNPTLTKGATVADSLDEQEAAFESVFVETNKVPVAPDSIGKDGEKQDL

[27] = biological target: stress 70 protein chaperone, microsome-associated, 60 kDa (Homo sapiens) (UniProt P48723)
[28] = biological target: similar to hypothetical protein (Homo sapiens)
[29] = biological target: WD repeat membrane protein PWDMP (Homo sapiens) (UniProt Q8NEZ3)
[30] = biological target: MAP/ERK kinase kinase 4 isoform a (Homo sapiens) (UniProt Q9Y6R4)
[31] = biological target: tripartite motif protein TRIM14 isoform alpha (Homo sapiens) (UniProt Q14142)
[32] = biological target: integrin, beta 5 (Homo sapiens) (UniProt P18084)

Chain of GroEL having Aspartate 490 substituted with Cysteine, biotinylated and conjugated onto NeutrAvidin beads (A1AJ51 whole entry D490C): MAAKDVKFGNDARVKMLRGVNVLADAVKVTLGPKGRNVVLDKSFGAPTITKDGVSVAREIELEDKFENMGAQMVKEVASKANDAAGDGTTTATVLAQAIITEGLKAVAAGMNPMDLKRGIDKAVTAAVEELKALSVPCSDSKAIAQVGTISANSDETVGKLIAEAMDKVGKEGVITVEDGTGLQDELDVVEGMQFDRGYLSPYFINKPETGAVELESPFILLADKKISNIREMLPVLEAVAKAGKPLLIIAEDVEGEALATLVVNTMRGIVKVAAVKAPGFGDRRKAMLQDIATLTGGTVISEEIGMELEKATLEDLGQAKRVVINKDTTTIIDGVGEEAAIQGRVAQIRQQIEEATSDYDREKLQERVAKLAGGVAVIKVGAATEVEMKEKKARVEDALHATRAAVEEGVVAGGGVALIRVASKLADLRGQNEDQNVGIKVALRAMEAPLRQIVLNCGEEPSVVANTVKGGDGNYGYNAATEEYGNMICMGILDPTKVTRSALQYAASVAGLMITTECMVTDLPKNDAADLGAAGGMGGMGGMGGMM

Spectrum Count [1]: 11 count | Spectrum Count [2]: 14 count | Spectrum Count [3]: 13 count | Spectrum Count [4]: 10 count | Spectrum Count [5]: 13 count | Spectrum Count [6]: 10 count | Spectrum Count [7]: 9 count | Spectrum Count (KIAA0317 (Homo sapiens)): 10 count | Spectrum Count [8]: 11 count | Spectrum Count [9]: 21 count | Spectrum Count [10]: 14 count | Spectrum Count [11]: 9 count | Spectrum Count [12]: 10 count | Spectrum Count [13]: 14 count | Spectrum Count [14]: 13 count | Spectrum Count [15]: 18 count | Spectrum Count (dendrin (Homo sapiens)): 14 count | Spectrum Count [16]: 14 count | Spectrum Count [17]: 43 count | Spectrum Count [18]: 10 count | Spectrum Count [19]: 60 count | Spectrum Count [20]: 19 count | Spectrum Count [21]: 19 count | Spectrum Count [22]: 19 count | Spectrum Count [23]: 34 count | Spectrum Count [24]: 41 count | Spectrum Count [25]: 20 count | Spectrum Count [26]: 38 count | Spectrum Count [27]: 12 count | Spectrum Count [28]: 13 count | Spectrum Count [29]: 16 count | Spectrum Count [30]: 13 count | Spectrum Count [31]: 21 count | Spectrum Count [32]: 9 count
Substance: GroEL having Aspartate 490 substituted with Cysteine, biotinylated and conjugated onto NeutrAvidin beads (from UniProt A1AJ51 1-548)
